Results reported in the supplement of paper PMC7877785.
± gives the uncertainty stated by the source.

Assay: self-splicing fitness, log relative to wild type (ln ratio); higher = more splicing; Tetrahymena group I intron in knt gene, E. coli kanamycin selection, DiMSum; sequences stand for … in CUCUCU…GGAGGGAAAAGUUAUCAGGCAUGCACCUGGUAGCUAGUCUUUAAACCAAUAGAUUGCAUCGGUUUAAAAGGCAAGACCGUCAAAUUGCGGGAAAGGGGUCAACAGCCGUUCAGUACCAAGUCUCAGGGGAAACUUUGAGAUGGCCUUGCAAAGGGUAUGGUAAUAAGCUGACGGACAUGGUCCUAACCACGCAGCCAAGUCCUAAGUCAACAGAUCUUCUGUUGAUAUGGAUGCAGUUCACAGACUAAAUGUCGGUCGGGGAAGAUGUAUUCUUCUCAUAAGAUAUAGUCGGACCUCUCCUUAAUGGGAGCUAGCGGAUGAAGUGAUGCAACACUGGAGCCGCUGGGAACUAAUUUGUAUGCGAAAGUAUAUUGAUUAGUUUUGGAGUACUCGUGGUCG
Method in brief: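 DiMSum derived fitness as the error-weighted combination of fold changes across replicates, kanamycin versus no kanamycin, normalised to wild type. E. coli BL21(DE3) held the library, which randomised all eight P1ex-region intron nucleotides within the knt kanamycin-resistance gene on pET-22b(+). Six replicate transformations grew overnight at 37°C or 30°C on LB agar with or without 25 μg/mL kanamycin, also containing 100 μg/mL carbenicillin, 50 μM IPTG and 0.2% rhamnose, and pooled colonies were amplicon-sequenced on an Illumina HiSeq 2500.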

| Sequence | self-splicing fitness (ln) (30 °C) | self-splicing fitness (ln) (37 °C) |
| --- | --- | --- |
| UCCGAGCAAUAUUACGCAAA | -3.59 ± 0.33 | -2.51 ± 0.31 |
| UCCGAGCAAUAUUACGCAGU | -2.79 ± 0.33 | -2.31 ± 0.28 |
| UCCGAGCAAUAUUACGCAUU | -2.2 ± 0.19 | -3.08 ± 0.37 |
| UCCGAGCAAUAUUACGCUAA | – | -2.86 ± 0.32 |
| UCCGAGCAAUAUUACGCUCA | -3.08 ± 0.32 | -2.3 ± 0.47 |
| UCCGAGCAAUAUUACGCUCU | -3.31 ± 0.4 | – |
| UCCGAGCAAUAUUACGCUGC | -2.96 ± 0.24 | -1.84 ± 0.31 |
| UCCGAGCAAUAUUACGGCCG | -4.07 ± 0.34 | – |
| UCCGAGCAAUAUUACGGGCC | -3.8 ± 0.3 | -2.94 ± 0.35 |
| UCCGAGCAAUAUUACGGUCU | -2.4 ± 0.15 | -1.58 ± 0.13 |
| UCCGAGCAAUAUUACGUAGA | -2.09 ± 0.14 | -1.42 ± 0.2 |
| UCCGAGCAAUAUUACGUAGC | -3.33 ± 0.23 | -2.14 ± 0.28 |
| UCCGAGCAAUAUUACGUCCA | -2.89 ± 0.38 | -2.37 ± 0.34 |
| UCCGAGCAAUAUUACGUCUC | -2.26 ± 0.21 | -2.99 ± 0.43 |
| UCCGAGCAAUAUUACGUGCA | -1.45 ± 0.15 | -1.47 ± 0.12 |
| UCCGAGCAAUAUUACGUGCC | -3.03 ± 0.26 | -2.97 ± 0.35 |
| UCCGAGCAAUAUUACGUGCU | -3.32 ± 0.26 | -2.61 ± 0.29 |
| UCCGAGCAAUAUUACGUUCG | -2.69 ± 0.49 | -1.78 ± 0.42 |
| UCCGAGCAAUAUUACGUUGC | -3.03 ± 0.21 | -2.16 ± 0.24 |
| UCCUAGCAAUAUUACGAAGG | -2.91 ± 0.15 | -2.1 ± 0.19 |
| UCCUAGCAAUAUUACGAGCG | -1.5 ± 0.099 | -1.15 ± 0.14 |
| UCCUAGCAAUAUUACGAUAU | -3.78 ± 0.28 | -2.72 ± 0.23 |

| Sequence | self-splicing fitness (ln) (30 °C) | self-splicing fitness (ln) (37 °C) |
| --- | --- | --- |
| UCCUAGCAAUAUUACGAUCG | -3.36 ± 0.21 | -2.33 ± 0.26 |
| UCCUAGCAAUAUUACGCGCA | -1.31 ± 0.1 | -0.0853 ± 0.097 |
| UCCUAGCAAUAUUACGCGGG | -3.2 ± 0.1 | -2.66 ± 0.14 |
| UCCUAGCAAUAUUACGCGUC | -3.53 ± 0.35 | -3.53 ± 0.42 |
| UCCUAGCAAUAUUACGGACA | -2.68 ± 0.37 | -2.29 ± 0.31 |
| UCCUAGCAAUAUUACGGAUA | -2.52 ± 0.2 | -0.547 ± 0.13 |
| UCCUAGCAAUAUUACGGCCA | -3.17 ± 0.15 | -1.74 ± 0.11 |
| UCCUAGCAAUAUUACGGCUA | – | -2.35 ± 0.27 |
| UCCUAGCAAUAUUACGGUAU | -3.23 ± 0.16 | -1.76 ± 0.18 |
| UCCUAGCAAUAUUACGGUCU | -1.59 ± 0.06 | -0.444 ± 0.07 |
| UCCUAGCAAUAUUACGUACG | -3.14 ± 0.18 | -1.78 ± 0.2 |
| UCCUAGCAAUAUUACGUAUC | -2.65 ± 0.14 | -2.44 ± 0.21 |
| UCCUAGCAAUAUUACGUCGA | -0.0892 ± 0.07 | 0.0864 ± 0.078 |
| UCCUAGCAAUAUUACGUGCG | -3.5 ± 0.2 | -1.98 ± 0.16 |
| UCCUAGCAAUAUUACGUUUU | -3.41 ± 0.21 | -2.69 ± 0.2 |
| UCGAAGCAAUAUUACGAAUA | -1.96 ± 0.2 | -1.76 ± 0.3 |
| UCGAAGCAAUAUUACGACAC | -2.44 ± 0.41 | -2.26 ± 0.38 |
| UCGAAGCAAUAUUACGACUG | -1.11 ± 0.095 | -0.774 ± 0.13 |
| UCGAAGCAAUAUUACGAGGA | -3.21 ± 0.39 | -1.19 ± 0.27 |
| UCGAAGCAAUAUUACGAUAA | -2.17 ± 0.13 | -1.13 ± 0.13 |
| UCGAAGCAAUAUUACGCGGG | -2.18 ± 0.19 | -1.68 ± 0.19 |
